{"source": "patent US9605038B2", "about": "“Fusion peptide comprising dhFas-1 domain and MMP substrate and use thereof for preventing and treating rheumatoid arthritis” (Kyungpook National University Industry-Academic Cooperation …, priority 2010, dated 2017)", "molecules": {"B1": {"name": "HsFJ24: fusion peptide having sequential links of hsdhFas-1, MMP1 substrate GPQGIAG (SEQ ID NO: 6), and QERGDSLA (SEQ ID NO: 10) (protein)", "chain": "RALPPRERSRLLGDAKELANILKYHIGDEILVSGGIGALVRLKSLQGDKLEVSLKNNVVSVNKEPVAEPDIMEFGPQGIAGVDGQERGDSLAGLE", "modifications": "hsFJ24"}, "B2": {"name": "HsFJ25: fusion peptide having sequential links of hsdhFas-1, MMP consensus substrate GPLGIAG (SEQ ID NO: 7), and QERGDSLA (SEQ ID NO: 10) (protein)", "chain": "B1 chain with Q77L", "modifications": "hsFj25"}, "B3": {"name": "HsFJ27: fusion peptide having sequential links of hsdhFas-1, MMP3 substrate GPLGLWARG (SEQ ID NO: 8), and QERGDSLA (SEQ ID NO: 10) (protein)", "chain": "MALFVRLLALALALALGPAATLARSFRALPPRERSRLLGDAKELANILKYHIGDEILVSGGIGALVRLKSLQGDKLEVSLKNNVVSVNKEPVAEPDIMEFGPLGLWARGVDQERGDSLAGLE", "modifications": "hsFJ27"}}, "note": "Changes are numbered by the printed parent chain.", "data": [{"tested_on": "human fibroblast-like synovicyte (FLS)", "assay": "βig-h3-mediated cell adhesion test, FLS", "type": "cell-based", "description": "βig-h3 was introduced into a 96-well plate at a concentration of 5 ug/ml, and coated for 14 hours at 4° C. In DMEM+0.5% BSA (Bovine Serum Albumin) culture medium, human fibroblast-like synovicyte (FLS) was introduced, and HsFJ24, HsFJ25 or HsFJ27 at concentrations was injected thereto, followed by mixing. The resultant mixture was cultured at 37° C. for 30 minutes, and plated on a coated well. It was cultured for 2 hours, and washed with PBS (phosphate buffered saline) so as to remove unattached cells, and then added with a substrate (4-Nitrophenyl N-acetyl-β-D-glucosaminide, Sigma, U.S.) to be activated by β-N-acetylglucosaminidase within the cell, followed by culturing at 37° C. for 1 hour. Then, a glycine EDTA solution (0.5M EDTA, 50 mM glycine, pH 10.4) was added thereto, and the coloring extent according to the number of attached cells was measured by absorbance.", "values": [{"molecule": "B1", "βig-h3-mediated adhesion of FLS": "concentration-dependently inhibited"}, {"molecule": "B2", "βig-h3-mediated adhesion of FLS": "concentration-dependently inhibited"}, {"molecule": "B3", "βig-h3-mediated adhesion of FLS": "concentration-dependently inhibited"}]}]}
